Experimental data as given in US20170246212A1, “METHODS TO UPREGULATE AND SUPPRESS AN EXPRESSION OF IMMUNOMODULATORY CELLS” (National Health Research Institutes, priority 2014, published 2017).

Legend:
[1] = system: PD-L1 surface expression on monocytes; assay: PD-L1 surface expression on human monocytes from PBLs, flow cytometry; assay type: cell-based; conditions: for IL-25-mediated induction of PD-L1 in human primary monocytes: inhibitor pretreatment (WP1066 2.5 μM; SP600125 25 μM; PD98059 20 μM; LY294002 10 μM; Akt inhibitor III 10 μM), then 100 ng/ml rhIL-25 for 18 hours
Protocol: FIG. 9. IL-25-mediated PD-L1 expression in human monocytes and hMSCs is mediated through JNK and STAT3 with STAT3 involved in transcriptional control of PD-L1. (A) Human PBLs were pretreated with inhibitors of STAT3 (WP1066; 2.5 μM), JNK (SP600125; 25 μM), or MEK1 (PD98059; 20 μM) prior to 100 ng/ml rhIL-25 for 18 hours, with subsequent flow cytometric analysis for PD-L1 surface expression on monocytes, gated using FSC and SSC. Filled histograms represent isotype control. Unfilled histograms represent PD-L1 antibody staining. Pooled data (3 donors) provided in (B) with bars representing MFI. hMSCs were treated with inhibitors of (C) STAT3 (WP1066; 2.5 μM) and (D) JNK (SP600125; 25 μM) for 6 hours, and subsequently assessed by flow cytometric analysis for PD-L1 surface expression. Pooled data (all 3 donors) for each respective inhibitor provided (left charts) with bars representing MFI. (D) Putative GAS elements (STAT-binding sites) in the proximal promoter region of human PD-L1 gene; 700 bp region upstream from the transcription start site), as determined with TFSearch web-based software. (E) Binding of STAT3 or IgG (negative control) in hMSCs was analyzed by chromatin immunoprecipitation (ChIP) with promoter-specific primers for region 1 and region 2. The input samples (positive control) represent 1% starting chromatin. (F) Schematic of model of hMSC-mediated suppression of Th17 responses involving IL-25/STAT3/PD-L1 axis.
FIG. 10. Involvement of signal pathways for IL-25-induced expression of PD-L1 in human peripheral blood monocytes. (A) Pooled data (3 donors) of PD-L1 expression (shown as MFI) after MEK inhibition. (B) Human peripheral blood monocytes were pretreated with inhibitors of PI3K (LY294002; 10 μM) or Akt (Akt inhibitor III; 10 μM), followed by 100 ng/ml IL-25 stimulation. After IL-25 treatment for 18 hours, the expression of PD-L1 was assessed by cell surface staining. Pooled data (3 donors) provided in (C) of PD-L1 expression (shown as MFI). A.U., arbitrary units. […]

[2] = system: PD-L1 surface expression on hMSCs; assay: PD-L1 surface expression on hMSCs, flow cytometry; assay type: cell-based, human
Protocol: FIG. 7. IL-25 induces PD-L1 surface expression on hMSCs and human monocytes. (A) PD-L1 in siCtrl MSCs (left panel) and siPD-L1 MSCs (right panel) was analyzed by surface staining. (B) Freshly isolated human PBLs were co-cultured without (left panels) or with siCtrl MSCs (middle panels) or siPD-L1 MSCs (right panels) for 3 days, followed by PMA/ionomycin stimulation for 6 hours. IL-17A production in CD3^+ T cells was assessed by intracellular staining. Representative data shown with numbers in the top right quadrants representing the percentages of IL-17A-producing CD3^+ T cells. Pooled data from PBLs (n=4) and 2 hMSC donors (donors A & B) are provided in (C). Folds of reversed phenotypes of silL-25 and siPD-L1 are provided in (D). (E) PD-L1 expression on siCtrl hMSCs (left panel) and silL-25 hMSCs (right panel) was assessed by cell surface staining Filled histograms represent isotype control. […] Pooled data provided in (F) of PD-L1 expression (indicated by fold-change in mean fluorescence intensity; MFI) on silL-25-hMSCs and siPD-L1-hMSCs (all 3 donors). […] (G) hMSCs were treated with indicated doses of rhIL-25 for 18 hours and assessed for cell surface PD-L1 expression by cell surface staining. […] (H) Human PBLs were treated with indicated doses of rhIL-25 for 18 hours, and assessed for cell surface PD-L1 expression on monocytes, gated using FSC and SSC, by flow cytometric analysis. […]

[3] = system: IL-17A production in CD3+ T cells; assay: IL-17A production in CD4 T cells treated with rhIL-25, intracellular staining; assay type: cell-based, human; conditions: rhIL-25 alone for 18 hours, then PMA/ionomycin 6 hours
Protocol: FIG. 6. […] (A) Human CD4 T cells were treated with indicated doses of recombinant human IL-25 (rhIL-25) for 18 hours, followed by PMA/ionomycin stimulation for 6 hours. IL-17A production in CD3^+ T cells was assessed by intracellular staining. Numbers in the top right quadrants represent the percentages of IL-17A-producing CD3^+ T cells; (B) pooled data of 5 PBL donors. (C) Human CD4 T cells (n=4) were co-cultured without or with hMSCs (2 donors: B & C) in the absence or presence of transwell barriers. Pooled data from healthy donors are provided in (D). Data are shown as means±SD. **, p<0.01; n.s., not significant. […]
Cells were stained with antibodies as indicated: anti-human IL-25-PE (R&D Systems), mouse IgG1 isotype control-PE (R&D Systems), anti-human CD3-PE/Cy5 (BioLegend), anti-human CD4-PE (BioLegend), anti-human IL-17A-PE (eBioscience), anti-human IFN-γ-FITC (BioLegend), anti-human IL-22-PE (eBioscience), anti-human FOXP3-Alexa Fluor 488 (BD Pharmingen), anti-human CD274 […]-PE (eBioscience), mouse IgG1 isotype control-PE (eBioscience), anti-human IL-25R-PE (R&D Systems), and mouse IgG2b isotype control-PE (R&D Systems), anti-mouse CD4-APC (eBioscience), anti-mouse CD3e-PE/Cy5 (eBioscience), and anti-mouse/rat IL-17A-PE (eBioscience). Data was collected on BD FACSCalibur™ (BD Biosciences) instruments and analyzed with Cell Quest Pro software (BD Biosciences).

[4] = system: myeloid-derived suppressor cells (MDSCs) in peripheral blood leukocytes; assay: Expansion of CD14-CD11b+CD33+ MDSCs from human PBLs by IL-25; assay type: cell-based; conditions: allogeneic PBL (2 donors), various doses of IL-25
Protocol: FIG. 11. IL-25 expands […] myeloid-derived suppressor cells (MDSCs) in peripheral blood leukocytes (PBLs). Expansion of CD14^−CD11b^+CD33^+ cells from human PBLs by recombinant human IL-25. Allogeneic PBL (2 donors) were cultured alone or with addition of various doses of IL-25 as indicated. PBL were first gated on forward scatter (FSC)/side scatter (SSC) (R1) then analyzed for CD14^− and CD11b^+ (R2), and further analyzed for CD33^+ (R3, cell percentages denoted).
To further confirm that IL-25 can induce expansion of MDSCs from peripheral blood, Allogeneic PBL (2 donors) were cultured alone or with addition of various doses of IL-25 as indicated (FIG. 11). The treated cells were first gated on forward scatter (FSC)/side scatter (SSC) (R1) then analyzed for CD14^− and CD11b^+ (R2), and further analyzed for CD33^+ (R3, cell percentages denoted).

## COc1cccc(-c2cc(=O)c3ccccc3o2)c1N [PD98059]
[1]
  IL-25-mediated induction of PD-L1 in human primary monocytes: minimal effect

## C[C@H](NC(=O)/C(C#N)=C/c1cccc(Br)n1)c1ccccc1 [WP1066, reference compound]
[1]
  IL-25-mediated induction of PD-L1 in human primary monocytes: substantially abolished
[2]; inhibitor for 6 hours (WP1066 2.5 μM; SP600125 25 μM)
  PD-L1 expression in hMSCs: strongly reduced

B1: rhIL-25: Human recombinant IL-25 (PeproTech); IL-25 also known as IL17E (protein, UniProt Q9H293 33-177, looked up)
Interleukin-25: YSHWPSCCPSKGQDTSEELLRWSTVPVPPLEPARPNRHPESCRASEDGPLNSRAISPWRYELDRDLNRLPQDLYHARCLCPHCVSLQTGSHMDPRGNSELLYHNQTVFYRRPCHGEKGTHKGYCLERRLYRVSLACVCVRPRVMG
[3]
  suppression of Th17 responses (IL-17A in CD4 T cells): failed to suppress Th17 responses to a significant extent
[1]; human PBLs treated with rhIL-25, indicated doses, 18 hours, dose-dependent
  PD-L1 expression in monocytes: dramatically and significantly increased
[4]
  expansion of MDSCs in PBLs: expands
[2]; exogenous rhIL-25, indicated doses, 18 hours
  surface expression of PD-L1 on hMSCs: further upregulate surface expression of PD-L1 on hMSCs but not to a significant extent
